Assay results reported in patent US20140274782A1, “AFFINITY REAGENTS AND METHODS FOR DETECTION, PURIFICATION, AND PROTEOMIC ANALYSIS OF METHYLATED PROTEINS” (The Board of Trustees of the Leland Stanford Junior …, priority 2013, published 2014).
Blank lines part the entries; values can stand above or below the molecule they belong to.

Columns and labels:
[1] = tested on: 3×MBT domain of L3MBTL1; test: Triple SILAC pull-down, 3xMBT/3xMBTD355N ratio (cytoplasmic, nuclear and chromatin fractions of 293T cells); assay type: binding, human; details: for 3xMBT/D355N UNC Heavy / 3xMBT/D355N UNC Light: SILAC ratio, pull-down 3xMBT vs 3xMBTD355N; for 3xMBT/D355N UNC Heavy: experiment with UNC0638 in heavy SILAC media; for 3xMBT/D355N UNC Light: experiment with UNC0638 in light SILAC media;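 on all read-outs here: proteins quantified with MaxQuant, requiring at least two unique peptides and quantification in both label directions, normalized to the mean of proteins from a digested loading control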
[2] = biological target: T1, G9a and GLP (Homo sapiens, UniProt Q96KQ7+Q9H9B1); test: Triple SILAC pull-down after UNC0638 treatment of 293T cells, DMSO/UNC0638 ratio of protein captured by 3×MBT; assay type: cell-based; set-up: cells were treated for 24 hours with UNC0638 at 2.5 μM or DMSO vehicle control; endogenous in cells; host or cells: HEK 293T; details: for Relative to UNC0638 UNC Heavy / Relative to UNC0638 UNC Light: SILAC ratio DMSO/UNC0638 of protein pulled down with 3xMBT; for Relative to UNC0638 UNC Heavy: UNC0638 in heavy SILAC media; for Relative to UNC0638 UNC Light: UNC0638 in light SILAC media; for Relative to UNC0638 Average: average of UNC Light and UNC Heavy experiments;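 on all read-outs here: mass spectrometry (Q-Exactive) SILAC quantitation, DMSO/UNC0638 ratio computed after subtracting 3×MBTD355N mutant pull-down background, only proteins with at least twofold 3×MBT over mutant signal considered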
T1 sequence (Q96KQ7 2-1210 limits assumed): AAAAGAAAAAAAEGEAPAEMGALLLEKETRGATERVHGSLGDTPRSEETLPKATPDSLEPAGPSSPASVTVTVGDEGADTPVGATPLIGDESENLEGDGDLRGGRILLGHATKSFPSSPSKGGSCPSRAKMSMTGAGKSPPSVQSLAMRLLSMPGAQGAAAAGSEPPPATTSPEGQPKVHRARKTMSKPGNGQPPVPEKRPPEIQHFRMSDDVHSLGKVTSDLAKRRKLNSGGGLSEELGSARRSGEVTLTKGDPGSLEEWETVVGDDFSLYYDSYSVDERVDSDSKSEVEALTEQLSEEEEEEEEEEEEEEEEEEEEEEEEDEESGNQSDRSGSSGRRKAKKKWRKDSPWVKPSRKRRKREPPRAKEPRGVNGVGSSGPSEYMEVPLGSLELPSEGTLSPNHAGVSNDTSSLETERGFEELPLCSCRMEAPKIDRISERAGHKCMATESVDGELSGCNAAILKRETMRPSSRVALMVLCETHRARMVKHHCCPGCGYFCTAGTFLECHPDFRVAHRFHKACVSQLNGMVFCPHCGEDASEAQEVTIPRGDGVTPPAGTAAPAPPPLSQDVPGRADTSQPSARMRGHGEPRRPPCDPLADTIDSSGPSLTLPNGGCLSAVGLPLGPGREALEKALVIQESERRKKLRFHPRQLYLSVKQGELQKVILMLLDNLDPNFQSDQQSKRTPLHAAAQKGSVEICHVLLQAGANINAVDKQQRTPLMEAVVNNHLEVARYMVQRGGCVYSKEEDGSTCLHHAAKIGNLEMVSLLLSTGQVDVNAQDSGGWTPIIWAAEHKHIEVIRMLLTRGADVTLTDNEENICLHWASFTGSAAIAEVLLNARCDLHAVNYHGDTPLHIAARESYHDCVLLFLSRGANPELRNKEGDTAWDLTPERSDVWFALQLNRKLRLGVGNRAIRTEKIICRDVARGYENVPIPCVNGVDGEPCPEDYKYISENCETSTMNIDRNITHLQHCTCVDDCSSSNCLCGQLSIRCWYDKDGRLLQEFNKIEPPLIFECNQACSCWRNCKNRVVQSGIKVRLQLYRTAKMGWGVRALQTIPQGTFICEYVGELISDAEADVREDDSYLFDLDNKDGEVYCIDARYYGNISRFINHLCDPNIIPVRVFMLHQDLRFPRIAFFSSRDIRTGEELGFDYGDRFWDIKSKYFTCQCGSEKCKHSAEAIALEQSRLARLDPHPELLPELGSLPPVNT
T1 sequence (Q9H9B1 2-1298 limits assumed): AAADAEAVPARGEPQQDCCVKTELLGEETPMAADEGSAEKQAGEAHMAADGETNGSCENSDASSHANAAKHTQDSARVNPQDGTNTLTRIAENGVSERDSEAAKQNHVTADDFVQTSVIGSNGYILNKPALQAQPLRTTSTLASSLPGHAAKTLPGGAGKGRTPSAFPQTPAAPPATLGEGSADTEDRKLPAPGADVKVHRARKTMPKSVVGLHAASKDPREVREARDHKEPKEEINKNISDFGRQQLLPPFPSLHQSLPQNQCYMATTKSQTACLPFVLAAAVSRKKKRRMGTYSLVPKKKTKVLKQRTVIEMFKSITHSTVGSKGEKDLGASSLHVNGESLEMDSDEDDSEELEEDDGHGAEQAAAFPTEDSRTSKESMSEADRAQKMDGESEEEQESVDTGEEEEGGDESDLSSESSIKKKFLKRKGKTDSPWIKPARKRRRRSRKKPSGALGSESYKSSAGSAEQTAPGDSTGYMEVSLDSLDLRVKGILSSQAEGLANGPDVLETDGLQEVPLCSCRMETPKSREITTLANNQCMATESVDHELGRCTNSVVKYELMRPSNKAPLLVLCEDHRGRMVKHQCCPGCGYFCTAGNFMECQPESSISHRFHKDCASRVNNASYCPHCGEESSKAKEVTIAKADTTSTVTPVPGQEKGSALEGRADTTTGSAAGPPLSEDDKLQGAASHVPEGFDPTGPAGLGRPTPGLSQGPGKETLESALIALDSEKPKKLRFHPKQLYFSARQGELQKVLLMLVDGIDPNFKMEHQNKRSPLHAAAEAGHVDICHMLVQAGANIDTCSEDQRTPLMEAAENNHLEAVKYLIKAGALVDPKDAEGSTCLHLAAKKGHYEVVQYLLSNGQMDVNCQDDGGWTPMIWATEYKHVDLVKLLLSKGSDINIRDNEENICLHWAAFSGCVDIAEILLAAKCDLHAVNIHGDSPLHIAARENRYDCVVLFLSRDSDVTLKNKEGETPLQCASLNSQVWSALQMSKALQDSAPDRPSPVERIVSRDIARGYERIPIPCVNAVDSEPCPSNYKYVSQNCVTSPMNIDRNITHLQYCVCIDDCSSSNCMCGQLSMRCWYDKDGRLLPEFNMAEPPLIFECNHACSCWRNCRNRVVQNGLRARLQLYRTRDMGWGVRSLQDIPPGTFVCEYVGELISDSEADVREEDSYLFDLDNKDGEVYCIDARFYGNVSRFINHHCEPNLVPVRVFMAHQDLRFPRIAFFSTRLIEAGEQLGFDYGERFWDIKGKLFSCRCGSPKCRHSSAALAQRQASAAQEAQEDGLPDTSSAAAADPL

Relative to UNC0638 UNC Heavy [2]: 0.27 log base 2 | Relative to UNC0638 UNC Light [2]: 0.04 log base 2 | Relative to UNC0638 Average [2]: 0.15 log base 2
B1: eEF1A1: protein with methylated lysine identified in 3xMBT pull-down (protein, UniProt P68104 2-462, looked up)
Elongation factor 1-alpha 1: GKEKTHINIVVIGHVDSGKSTTTGHLIYKCGGIDKRTIEKFEKEAAEMGKGSFKYAWVLDKLKAERERGITIDISLWKFETSKYYVTIIDAPGHRDFIKNMITGTSQADCAVLIVAAGVGEFEAGISKNGQTREHALLAYTLGVKQLIVGVNKMDSTEPPYSQKRYEEIVKEVSTYIKKIGYNPDTVAFVPISGWNGDNMLEPSANMPWFKGWKVTRKDGNASGTTLLEALDCILPPTRPTDKPLRLPLQDVYKIGGIGTVPVGRVETGVLKPGMVVTFAPVNVTTEVKSVEMHHEALSEALPGDNVGFNVKNVSVKDVRRGNVAGDSKNDPPMEAAGFTAQVIILNHPGQISAGYAPVLDCHTAHIACKFAELKEKIDRRSGKKLEDGPKFLKSGDAAIVDMVPGKPMCVESFSDYPPLGRFAVRDMRQTVAVGVIKAVDKKAAGAGKVTKSAQKAQKAK
modifications: methylated lysine
notes: protein with methylated lysine identified in 3xMBT pull-down
3xMBT/D355N UNC Heavy [1]: 3.08 log base 2 | 3xMBT/D355N UNC Light [1]: 2.87 log base 2

Relative to UNC0638 UNC Heavy [2]: 0.02 log base 2 | Relative to UNC0638 UNC Light [2]: 0.29 log base 2 | Relative to UNC0638 Average [2]: 0.16 log base 2
B2: DDX1: protein with methylated lysine identified in 3xMBT pull-down (protein, UniProt Q92499 1-740, looked up)
ATP-dependent RNA helicase …: MAAFSEMGVMPEIAQAVEEMDWLLPTDIQAESIPLILGGGDVLMAAETGSGKTGAFSIPVIQIVYETLKDQQEGKKGKTTIKTGASVLNKWQMNPYDRGSAFAIGSDGLCCQSREVKEWHGCRATKGLMKGKHYYEVSCHDQGLCRVGWSTMQASLDLGTDKFGFGFGGTGKKSHNKQFDNYGEEFTMHDTIGCYLDIDKGHVKFSKNGKDLGLAFEIPPHMKNQALFPACVLKNAELKFNFGEEEFKFPPKDGFVALSKAPDGYIVKSQHSGNAQVTQTKFLPNAPKALIVEPSRELAEQTLNNIKQFKKYIDNPKLRELLIIGGVAARDQLSVLENGVDIVVGTPGRLDDLVSTGKLNLSQVRFLVLDEADGLLSQGYSDFINRMHNQIPQVTSDGKRLQVIVCSATLHSFDVKKLSEKIMHFPTWVDLKGEDSVPDTVHHVVVPVNPKTDRLWERLGKSHIRTDDVHAKDNTRPGANSPEMWSEAIKILKGEYAVRAIKEHKMDQAIIFCRTKIDCDNLEQYFIQQGGGPDKKGHQFSCVCLHGDRKPHERKQNLERFKKGDVRFLICTDVAARGIDIHGVPYVINVTLPDEKQNYVHRIGRVGRAERMGLAISLVATEKEKVWYHVCSSRGKGCYNTRLKEDGGCTIWYNEMQLLSEIEEHLNCTISQVEPDIKVPVDEFDGKVTYGQKRAAGGGSYKGHVDILAPTVQELAALEKEAQTSFLHLGYLPNQLFRTF
3xMBT/D355N UNC Heavy [1]: 3.07 log base 2 | 3xMBT/D355N UNC Light [1]: 3.64 log base 2

Relative to UNC0638 UNC Heavy [2]: 0.22 log base 2 | Relative to UNC0638 UNC Light [2]: 0.12 log base 2 | Relative to UNC0638 Average [2]: 0.17 log base 2
B3: CMAS: protein with methylated lysine identified in 3xMBT pull-down (protein, UniProt Q8NFW8 1-434, looked up)
N-acylneuraminate …: MDSVEKGAATSVSNPRGRPSRGRPPKLQRNSRGGQGRGVEKPPHLAALILARGGSKGIPLKNIKHLAGVPLIGWVLRAALDSGAFQSVWVSTDHDEIENVAKQFGAQVHRRSSEVSKDSSTSLDAIIEFLNYHNEVDIVGNIQATSPCLHPTDLQKVAEMIREEGYDSVFSVVRRHQFRWSEIQKGVREVTEPLNLNPAKRPRRQDWDGELYENGSFYFAKRHLIEMGYLQGGKMAYYEMRAEHSVDIDVDIDWPIAEQRVLRYGYFGKEKLKEIKLLVCNIDGCLTNGHIYVSGDQKEIISYDVKDAIGISLLKKSGIEVRLISERACSKQTLSSLKLDCKMEVSVSDKLAVVDEWRKEMGLCWKEVAYLGNEVSDEECLKRVGLSGAPADACSTAQKAVGYICKCNGGRGAIREFAEHICLLMEKVNNSCQK
3xMBT/D355N UNC Heavy [1]: 2.71 log base 2 | 3xMBT/D355N UNC Light [1]: 2.86 log base 2

B4: 3×MBT: three MBT repeats of L3MBTL1 (amino acids 190-530 of accession NP—056293.4), expressed as GST or Flag fusion; methyl-lysine affinity reagent (protein)
chain: EEWSSSQPATGEKKECWSWESYLEEQKAITAPVSLFQDSQAVTHNKNGFKLGMKLEGIDPQHPSMYFILTVAEVCGYRLRLHFDGYSECHDFWVNANSPDIHPAGWFEKTGHKLQPPKGYKEEEFSWSQYLRSTRAQAAPKHLFVSQSHSPPPLGFQVGMKLEAVDRMNPSLVCVASVTDVVDSRFLVHFDNWDDTYDYWCDPSSPYIHPVGWCQKQGKPLTPPQDYPDPDNFCWEKYLEETGASAVPTWAFKVRPPHSFLVNMKLEAVDRRNPALIRVASVEDVEDHRIKIHFDGWSHGYDFWIDADHPDIHPAGWCSKTGHPLQPPLGPREPSSASPGG
modifications: left off: a dimerising Fc or GST
number of proteins enriched by 3×MBT compared to 3×MBTD355N ([1]; two biological replicates): 370
